US20080267971A1 (published 2008)

T1: human Angiopoietin-1 (human, UniProt Q15389 20-498, limits assumed)
T1 construct: Bought recombinant protein (R&D Systems 293-AN-025/CF) or supernatant of transfected 293F cells; also called Ang-1; recombinant Ang-1
T1 sequence: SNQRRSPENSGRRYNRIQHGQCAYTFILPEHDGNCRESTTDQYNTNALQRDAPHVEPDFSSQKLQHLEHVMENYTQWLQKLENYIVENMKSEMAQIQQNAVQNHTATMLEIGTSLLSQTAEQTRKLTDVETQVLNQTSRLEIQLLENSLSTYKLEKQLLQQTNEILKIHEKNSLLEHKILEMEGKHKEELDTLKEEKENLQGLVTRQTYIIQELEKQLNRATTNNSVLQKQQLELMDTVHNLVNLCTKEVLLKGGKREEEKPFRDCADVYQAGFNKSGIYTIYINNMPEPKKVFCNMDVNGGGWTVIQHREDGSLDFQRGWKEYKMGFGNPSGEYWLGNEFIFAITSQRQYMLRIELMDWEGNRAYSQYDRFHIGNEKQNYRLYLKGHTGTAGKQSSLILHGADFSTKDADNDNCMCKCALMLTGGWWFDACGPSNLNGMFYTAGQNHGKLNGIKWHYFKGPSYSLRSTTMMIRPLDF

B1: recombinant human Tie2/Fc fusion protein (Fc fusion, UniProt Q02763 23-745, looked up, not shown: a dimerising Fc or GST)
chain: AMDLILINSLPLVSDAETSLTCIASGWRPHEPITIGRDFEALMNQHQDPLEVTQDVTREWAKKVVWKREKASKINGAYFCEGRVRGEAIRIRTMKMRQQASFLPATLTMTVDKGDNVNISFKKVLIKEEDAVIYKNGSFIHSVPRHEVPDILEVHLPHAQPQDAGVYSARYIGGNLFTSAFTRLIVRRCEAQKWGPECNHLCTACMNNGVCHEDTGECICPPGFMGRTCEKACELHTFGRTCKERCSGQEGCKSYVFCLPDPYGCSCATGWKGLQCNEACHPGFYGPDCKLRCSCNNGEMCDRFQGCLCSPGWQGLQCEREGIQRMTPKIVDLPDHIEVNSGKFNPICKASGWPLPTNEEMTLVKPDGTVLHPKDFNHTDHFSVAIFTIHRILPPDSGVWVCSVNTVAGMVEKPFNISVKVLPKPLNAPNVIDTGHNFAVINISSEPYFGDGPIKSKKLLYKPVNHYEAWQHIQVTNEIVTLNYLEPRTEYELCVQLVRRGEGGEGHPGPVRRFTTASIGLPPPRGLNLLPKSQTTLNLTWQPIFPSSEDDFYVEVERRSVQKSDQQNIKVPGNLTSVLLNNLHPREQYVVRARVNTKAQGEWSEDLTAWTLSDILPPQPENIKISNITHSSAVISWTILDGYSISSITIRYKVQGKNEDQHVDVKIKNATITQYQLKGLEPETAYQVDIFAENNIGSSNPAFSHELVTLPESQAPADLGGGK
notes: Bought fusion protein; also called hTie2/Fc; soluble Tie2/Fc
B2: human Angiopoietin-2 (ligand)
chain: YNNFRKSMDSIGKKQYQVQHGSCSYTFLLPEMDNCRSSSSPYVSNAVQRDAPLEYDDSVQRLQVLENIMENNTQWLMKLENYIQDNMKKEMVEIQQNAVQNQTAVMIEIGTNLLNQTAEQTRKLTDVEAQVLNQTTRLELQLLEHSLSTNKLEKQILDQTSEINKLQDKNSFLEKKVLAMEDKHIIQLQSIKEEKDQLQVLVSKQNSIIEELEKKIVTATVNNSVLQKQQHDLMETVNNLLTMMSTSNSAKDPTVAKEEQISFRDCAEVFKSGHTTNGIYTLTFPNSTEEIKAYCDMEAGGGGWTIIQRREDGSVDFQRTWKEYKVGFGNPSGEYWLGNEFVSQLTNQQRYVLKIHLKDWEGNEAYSLYEHFYLSSEELNYRIHLKGLTGTAGKISSISQPGNDFSTKDGDNDKCICKCSQMLTGGWWFDACGPSNLNGMYYPQRQNTNKFNGIKWYYWKGSGYSLKATTMMIRPADF
notes: Mostly bought recombinant protein (R&D Systems 623-AM/CF, 623-AN; biotinylated BT623) or supernatant of transfected 293F cells; also called Ang-2; rhAng-2

Columns and labels:
[1] = target: B2; assay: FACS: inhibition of Ang-2 binding to HEK293F/Tie2 cells
Protocol: (§1) Cell suspension of 4 million cells/mL in FACS Buffer were prepared, and then aliquoted to a 96-well polypropylene plate with 50 ul per well. […] Cells were washed by centrifuging the plate at 1,200 rpm for 5 minutes, removing the supernatant by aspirating, and resuspending the cells with 200 ul per well of FACS Buffer. Washing procedures were repeated twice. The cells were then suspended with 100 ul of mouse Anti-6×-Histidine antibody diluted to 2 ug/ml in FACS Buffer, and incubated at room temperature for 30 minutes. After washing, the cells were suspended in 100 ul of PE-conjugated goat anti-mouse-IgG, which was diluted 1:100 in FACS Buffer, for incubation at room temperature for 30 minutes. The volume of the samples were brought to 300 ul with FACS Buffer, and measured with FACS Calibur.

[2] = target: T1, human Angiopoietin-1; assay: FACS: inhibition of Ang-1 binding to HEK293F/Tie2 cells
Protocol: as §1

[3] = target: B1; assay: FACS competition: binding of His-tagged recombinant human Ang-2 to Tie2 on HEK293F/Tie2 transfectants, soluble Tie2/Fc titrated, n = 3
Protocol: as §1

EC50 [1]	EC50 [2]	binding result [3]	Binder
25.7 nM	18.7 nM		B1
		binds	B2
